Results from patent publication US6420518.
Positions of bridges follow the written chain, without caps; N, C: chain ends. Non-standard residues stand in square brackets, D forms with d. No end group written: not given here. 1Nal = N[C@@H](Cc1cccc2ccccc12)C(=O)O; Nle = CCCC[C@H](N)C(=O)O

B1: (i+7)C (peptide)
peptide: Ac-PLEWLAEKYEG
modifications: linker 3-10 via 1,5‑diaminopentane
notes: also called locked-helix variant of bp1-01
B2: (i+7)D (peptide)
peptide: Ac-RAGPLEWLAEKYEG
modifications: linker 6-13 via 1,5‑diaminopentane
notes: as for B1
B3: (i+8)C (peptide)
peptide: Ac-RAGPLEWLAEKYFE
modifications: linker 6-14 via 1,5‑diaminopentane
notes: as for B1
B4: (i+7)B (peptide)
peptide: Ac-LEWLAEKYEG
modifications: linker 2-9 via 1,5‑diaminopentane
notes: as for B1
B5: bp1-23 (peptide)
peptide: CRAGPLQ[1Nal]LCEKYF
modifications: disulfide 1-10
notes: also called W8(Nal(1)) variant of bp1-16
B6: (i+8)B (peptide)
peptide: Ac-RPLEWLAEKYFE
modifications: linker 4-12 via 1,5‑diaminopentane
notes: as for B1
B7: bp1-625 (peptide)
peptide: GQQSCAAGPLQWLCEHYFSTYGR
modifications: disulfide 5-14
notes: bp1-40 with R2A, K12H and an added C-terminal GlyArg
B8: (i+7)A (peptide)
peptide: Ac-CRAGPLQELCEKYAE
modifications: disulfide 1-10 (inferred); linker 8-15 via 1,5‑diaminopentane
notes: W8 and G15 replaced by the cross-linking Glu residues, F14 replaced by Ala; also called locked-helix variant of bp1-01

Assays:
IGFBP-1 [1] = target: T1, IGFBP-1 (UniProt P08833 26-259); assay: ELISA inhibition of IGFBP-1 binding to IGF-I
T1 construct: in kinetics immobilised on a CM chip by EDC/NHS; biotinylated in the phage selection
T1 sequence (looked up): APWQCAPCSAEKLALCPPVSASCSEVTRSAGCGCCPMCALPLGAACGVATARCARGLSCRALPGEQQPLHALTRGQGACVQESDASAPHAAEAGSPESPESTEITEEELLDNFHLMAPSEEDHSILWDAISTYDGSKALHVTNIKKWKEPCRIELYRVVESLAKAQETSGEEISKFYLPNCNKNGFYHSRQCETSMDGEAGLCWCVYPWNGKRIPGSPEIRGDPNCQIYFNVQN

IGFBP-1 [2] = target: T1, IGFBP-1; assay: BIAcore inhibition of the interaction of IGFBP-1 with IGF-1
Protocol: Peptides were assayed in a BIAcore1 assay as described in WO 98/45427, supra.

IGFBP-1 [3] = target: T1, IGFBP-1; assay: BIAcore inhibition of IGFBP-1 binding to IGF-I
IGFBP-1 [4] = target: T1, IGFBP-1; assay: BIAcore inhibition of the interaction of IGFBP-1 with IGF-1; reference peptide
IGFBP-1 [5] = target: T1, IGFBP-1; assay: BIAcore inhibition assay, 9-10 nM IGFBP-1, immobilized IGF-1
IGFBP-1 [6] = target: T1, IGFBP-1; assay: ELISA or BIAcore inhibition of IGFBP-1 binding to IGF-I; reference peptide

| Binder | Fold potency reduction IC50(mut)/IC50(bp1-16) (IGFBP-1 [1]) [fold] | Fold potency reduction vs bp1-01 (IGFBP-1 [2]) [fold] | further results |
| --- | --- | --- | --- |
| CRAGPLQW[Nle]CEKYF (disulfide 1-10, also called L9(Nle) variant of bp1-16) [bp1-37] | 1.7 |  |  |
| B1 |  | 20 |  |
| B2 |  | 7.7 |  |
| B3 |  | 5.9 |  |
| B4 |  | > 360 |  |
| B5 |  |  | Fold potency reduction IC50(mut)/IC50(bp1-16) (IGFBP-1 [3]): 4.8 fold |
| B6 |  | 7.7 |  |
| CRAGPLQWLCEKYFG (disulfide 1-10) [bp1-01] |  |  | Fold potency reduction IC50(bp1-01)/IC50(mut) (IGFBP-1 [4]): 1 fold |
| CRAGP[Nle]QWLCEKYF (disulfide 1-10, also called L6(Nle) variant of bp1-16) [bp1-36] | 6.9 |  |  |
| B7 |  |  | fold improved potency over bp1-01 (IGFBP-1 [5]): ~20 fold |
| CRAGPLQWLCEKYF (disulfide 1-10, Synthetic peptide) [bp1-16] |  |  | Fold potency reduction IC50(mut)/IC50(bp1-16) (IGFBP-1 [6]): 1 fold |
| CRAGALQWLCEKYF (disulfide 1-10, also called P5A variant of bp1-16) [bp1-30] | 1.5 |  |  |
| CRAGPRQWLCEKYF (disulfide 1-10, also called L6R variant of bp1-16) [bp1-32] | > 1000 |  |  |
| CRAGPLQWRCEKYF (disulfide 1-10, also called L9R variant of bp1-16) [bp1-26] | > 570 |  |  |
| CRAGPLQRLCEKYF (disulfide 1-10, also called W8R variant of bp1-16) [bp1-22] |  |  | Fold potency reduction IC50(mut)/IC50(bp1-16) (IGFBP-1 [3]): 3.3 fold |
| CRAAPLQWLCEKYF (disulfide 1-10, also called G4A variant of bp1-16) [bp1-29] | 50 |  |  |
| CRAGPLQHLCEKYF (disulfide 1-10, also called W8H variant of bp1-16) [bp1-24] | 7.5 |  |  |
| CRAGRLQWLCEKYF (disulfide 1-10, also called P5R variant of bp1-16) [bp1-31] | 2 |  |  |
| CRAGNLQWLCEKYF (disulfide 1-10, also called P5N variant of bp1-16) [bp1-34] | 3.1 |  |  |
| B8 |  | 40 |  |
